B1: ORF 11: Rhodococcus erythropolis AN12 ORF 11 chnB monooxygenase, protein SEQ ID NO:28, expressed in E. coli (protein)
chain: MSPSPLPSVCIIGAGPTGITTAKRMKEFGIPFDCYEASDEVGGNWYYKNPNGMSACYQSLHIDTSKWRLAFEDFPVSADLPDFPHHSELFQYFKDYVEHFGLRESIIFNTSVVAAERDANGLWTVTRSDGEVRTYDVLMVCNGHHWDPNIPDYPGEFDGVLMHSHSYNDPFDPIDMRGKKVVVVGMGNSGLDIASELGQRYLADKLIVSARRGVWVLPKYLGGVPGDKLITPPWMPRGLRLFLSRRFLGKNLGTMEGYGLPKPDHRPFEAHPSASGEFLGRAGSGDITFKPAITKLDGKQVHFADGTAEDVDVVVCATGYNISFPFFDDPNLLPDKDNRFPLFKRMMKPGIDNLFFMGLAQPMPTLVNFAEQQSKLVAAYLTGKYQLPSANEMQEITKADEAYFLAPYYKSPRHTIQLEFDPYVRNMNKEIAKGTKRAAASGNKLPVAARAAAHELEKADRA
modifications: Rhodococcus erythropolis AN12
B2: ORF 19: Rhodococcus erythropolis AN12 ORF 19 chnB monooxygenase, protein SEQ ID NO:44, expressed in E. coli (protein)
chain: MTTQKALTTVDAIVIGAGFGGIYAVHKLANELGLTTVGFDKADGPGGTWYWNRYPGALSDTESHVYRFSFDRDLLQDGTWKHTYTTQPEILEYLEDVVSRFDLRRHFHFGTAVESAVYLEDEQLWEVTTDTGEIYRATYVVNAVGLLSAINRPDLPGLETFEGETIHTAAWPEGKDLTGRRVGVIGTGSTGQQVITALAPTVEHLTVFVRTPQYSVPVGKRAVTDEQIDAVKADYENIWTQVKRSSVAFGFEESTVPAMSVSAEERLRVYEEAWEQGGGFRFMFGTFGDIATDEEANETAASFIRSKITAMIEDPETARKLTPTGLFARRPLCDDGYFQVFNRPNVEAVAIKENPIREITAKGVVTEDGVLHKLDVLVLATGFDAVDGNYRRMTISGRGGLNINDHWDGQPTSYLGIATANFPNWFMVLGPNGPFTNLPPSIETQVEWISDTIGYVERTGVRAIEPTPEAESAWTATCTDIANMTVFTKVDSWIFGANVPGKKPSVLFYLGGLGNYRAVLADVTEGGYQGFALKTADTVDA
modifications: Rhodococcus erythropolis AN12
B3: ORF 18: Rhodococcus erythropolis AN12 ORF 18 chnB monooxygenase, protein SEQ ID NO:42, expressed in E. coli (protein)
chain: MSSRVNDGHIAIIGTGFSGLCMAIELKKKGIDDFVLYERADDVGGTWRDNTYPGAACDVPSVLYSYSFAQNPNWTRIFPPWSELLDYLRSVAAQYDLLPHIRFGVEVSEMRFDEDRLRWNIQFASGESVTAAVVVNGSGGLSNPYIPQLPGLESFEGAAFHSAKWRHDLDMSGRRVAVIGSGASAIQFVPEIAPHTETLHVFQRSPNWVMPRGDAALSPATRERFSRRPYRQRWLRWRTYWAFEKLASAFLGNRKLVEQYRSQALANLQQQVPDSDLRQKVTPDYDPGCKRRLISDDWYPALQRENVHLNTSGVSEIRPHSIIDSEGAEHEVDTLIFATGFQATSFLAPMKVFGREGVELSDSWREGAATKLGLASAAFPNLWFLNGPNTGLGHNSIIFMIEAQARYIASAVQYMRRKSITALELDRTVQTGSYAATQERMRRTVWASGGCDSWYQSADGRIDTLWPASTIEYWLRTRLFRKSDFHALTTGKG
modifications: Rhodococcus erythropolis AN12
B4: ORF 17: Rhodococcus erythropolis AN12 ORF 17 chnB monooxygenase, protein SEQ ID NO:40, expressed in E. coli (protein)
chain: MTQHVDVLIIGAGLSGIGAACHLIREQTGSTYAILERRENIGGTWDLFKYPGIRSDSDMLTFGFGFRPWIGTKVLADGASIRDYVEETAKEYGVTDHINFGRKVVAMDFDRTAAQWSVTVLVEATGETETWTANVLVGACGYYNYDKGYRPAFPGEDDFRGQIVHPQHWPEDLDYTGKKVVVIGSGATAITLIPSMAPTAGHVTMLQRSPTWIQALPSEDPVAKGLKLARVPDQIAYKIGRARNIALQRASFQLSRTNPKLAKKLFLAQIRLQLGKNVDLRHFTPSYNPWDQRLCVVPNGDLFKVLKSGKADIVTDRIATFTEKGIVTESGREIEADVIVTATGLNVQILGGATMSIDGEPVKLNETVAYKSVLYSDIPNFLMILGYTNASWTLKADLAASYLCRVLKIMRDRSYTTFEVHAEPEDFAEESLMGGALTSGYIQRGDGEMPRQGARGAWKVVNNYYRDRKLMHDAEIEDGVLQFSKVDIAVVPDSKVASA
modifications: Rhodococcus erythropolis AN12
B5: ORF 9: Rhodococcus erythropolis AN12 ORF 9 chnB monooxygenase, protein SEQ ID NO:24, expressed in E. coli (protein)
chain: MVDIDPTSGPSAGDEETRTRRTRVVVIGAGFGGIGTAVRLKQSGIDDFVVLERAAEPGGTWQVNTYPGAQCDIPSILYSFSFAPNPNWTRLYPLQPEIYDYLRDCVHRFGLAGHFHCNQDVTEASWDEQAQIWRVHTAETVWEAQFLVAATGPFSAPATPDLPGLESFRGQMFHTADWNHDHDLRGERIAVVGTGASAVQIIPRLQPLADTLTVFQRTPTWILPHPDQPMTGWPSALFERVPLTQRLARKGLDLLQEALVPGFVYKPSLLKGLAALGRAHLRRQVRDPELRAKLLPHYAFGCKRPTFSNTYYPALASPNVEVVTDGIVEVQERGVLTADGAFREVDTIVMGTGFRMGDNPSFDTIRGQDGRSLAQTWNGSAEAFLGTTISGFPNFFMILGPNSVVYTSQVVTIEAQVEYIVSCILQMDERGIGSIDVRADVQREFVRATDRRLATSVWNAGGCSSYYLVDGGRNYTFYPGFNRSFRARTKRADLAHYAQVQPVSSAALTTARETVRSR
modifications: Rhodococcus erythropolis AN12
B6: ORF 16: Rhodococcus erythropolis AN12 ORF 16 chnB monooxygenase, protein SEQ ID NO:38, expressed in E. coli (protein)
chain: VKLPEHVETLIVGAGFAGMGLAARMLRDNRTADVVLIERGADIGGTWRDNTYPGCACDVPTALYSYSFAPSADWSHTFARQPEIYDYLKKVAADTGIGDRVILNCELEAAVWDEDAALWRVRTSLGSLTVKALVAATGALSTPKIPDFPGLDQFSGTTFHSATWNHEHELRGERVAVIGTGASAVQFVPEIADPAAHVTVFQRTPAWVIPRMDRTLPAAQKAVYSRIPATQKVVRGAVYGFRELLGAAMSHATWVLPAFEAAARLHLRRQVKDPELRRKLTPDFTIGCKRMLLSNDWLRTLDRADVSLVDSGLVSVTEGGVVDGHGVEHKVDTIIFATGFTPTEPPVAHLITGKRGETLAAHWNGSPNAYKGTAVSGFPNLFLMYGPNTNLGHSSIVYMLESQAEYVNDALNTMKRERLDALDVNESVQVHYNKGIQHELQHTVWNKGGCSSWYIDPEGRNSVQWPTFTFKFRSLLEHFDRENYSARKIESVQA
modifications: Rhodococcus erythropolis AN12
B7: ORF 12: Rhodococcus erythropolis AN12 ORF 12 chnB monooxygenase, protein SEQ ID NO:30, expressed in E. coli (protein)
chain: VNNESDHFEVVIIGGGISGIGAAIHLQRLGIDNFALLEKADSLGGTWRANTYPGCACDVPSGLYSYSFAANPDWTRLFAEQPEIREYIENTAGTHGVDKHVRFGVEMLSARWDASQSLWKITTSSGELTARFVIAAAGPWNEPLTPAIPGLEAFEGEVFHSSQWNHDYDLTGKLVAVVGTGASAVQFVPRIVSQVSALHLYQRTAQWVLPKPDHYVPRIERSVMRFVPGAQKALRSIEYGIMEALGLGFRNPWILRIVQKLGSAQLRLQVRDPKLRKALTPDYTLGCKRLLMSNSYYPALGKPNVSVHANAVEQIRGNTVIGADGVEAEVDAIIFGTGFHILDMPIASKVFDGEGRSLDDHWQGSPQAYFGSAVSGFPNAFILLGPSLGTGHTSAFMILEAQLNYVAQAIGHARRHGWQTIDVREEVQAAFNSQVQEALGTTVYNAGGCESYFFDVNGRNSFNWPWSSGAMRRRLRDFDPYAYNHTSNPESDNTPPEPTPSEPTPSEPTPSEPTTSPEPEYTA
modifications: Rhodococcus erythropolis AN12

Test: Conversion of cyclohexanone to caprolactone by E. coli clones expressing Rhodococcus erythropolis AN12 monooxygenases, GC-MS detection
Format: cell-based, Escherichia coli
Settings: 500 mg/L cyclohexanone, 0.1 mM IPTG, overnight at 24° C., GC-MS of ethylacetate extract
Experimental: Following amplification, the gene fragments were cloned into pTrcHis-TOPO TA vectors with either an N-terminal tail or C-terminal tail, as provided by the vector sequence. These vectors were transformed into E. coli, with transformants grown in Luria-Bertani broth supplemented with ampicillin (100 ug/ml).
The chnB monooxygenase activity of each expressed enzyme from Example 9 was tested for activity according to its ability to convert cyclohexanone to caprolactone.
Clones containing the full length monooxygenase genes were transferred from LB agar plate to 5 mL of M63 minimal media (GIBCO) containing 10 mM glycerol, 50 ug/mL ampicillin, 0.1 mM IPTG, and 500 mg/L cyclohexanone. In addition to the clones containing full length monooxygenases, a plasmid without an insert and a “no cell” control were also assayed. The encoded monooxygenase sequences were expressed upon addition of IPTG to the culture media. The cultures were incubated overnight at room temperature (24° C.). Samples (1.25 mL) for analysis were taken immediately after inoculation and after overnight incubation; cells were removed by centrifugation (4° C., 13,000 rpm).
Caprolactone formed by the action of the cloned monooxygenase was extracted from the aqueous phase with ethylacetate (1.0 ml aqueous/0.5 mL ethylacetate). Caprolactone was detected by gas chromotagraphy mass spectrometry (GC-MS) analysis, using an Agilent 6890 Gas chromatograph system.
The analysis of the ethylacetate phase was performed by injecting 1 uL of the ethyl acetate phase into the GC. The inlet temperature was 115° C. and the column temperature profile was 50° C. for 4 min and ramped to 250° C. at 20° C./min, for a total run time of 14 min. The compounds were separated with an Hewlet Packard HP-5MS (5% phenyl Methyl Siloxane) column (30 m length, 250 um diameter, and 0.25 um film thickness). The mass spectrometer was run in Electron Ionization mode. The background mass spectra was subtracted from the spectra at the retention time of caprolactone (9.857 min). Presence of caprolactone was confirmed by comparison of the test reactions to an authentic standard obtained from Aldrich Chemical Company (St. Louis, Mo.).
Results of these assays are shown below in Table 7, in terms of the presence or absence of detectable caprolactone formation according to the activity of each expressed BV monooxygenase enzyme.

Molecule | Formation of Caprolactone (ability to convert cyclohexanone to caprolactone)
B1 | Detected
B2 | Detected
B3 | Detected
B4 | Detected
B5 | Detected
B6 | Detected
B7 | Detected

Reference: US20040267001A1, “Genes encoding baeyer-villiger monooxygenases” (priority 2001, published 2004)
